Reference: paper PMC6949303 (Nature Communications, 2020)

B1: Recombinant extracellular part of human FcεRIα (receptor, UniProt P12319 26-205, looked up)
chain: VPQKPKVSLNPPWNRIFKGENVTLTCNGNNFFEVSSTKWFHNGSLSEETNSSLNIVNAKFEDSGEYKCQHQQVNESEPVYLEVFSDWLLLQASAEVVMEGQPLFLRCHGWRNWDVYKVIYYKDGEALKYWYENHNISITNATVEDSGTYYCTGKVWQLDYESEPLNITVIKAPREKYWLQ
notes: also called recombinant human FcεRIα
B2: Ligelizumab IgG (antibody, V domains shown)
VH: QVQLVQSGAEVMKPGSSVKVSCKASGYTFSWYWLEWVRQAPGHGLEWMGEIDPGTFTTNYNEKFKARVTFTADTSTSTAYMELSSLRSEDTAVYYCARFSHFSGSNYDYFDYWGQGTLVTVSS
VL: EIVMTQSPATLSVSPGERATLSCRASQSIGTNIHWYQQKPGQAPRLLIYYASESISGIPARFSGSGSGTEFTLTISSLQSEDFAVYYCQQSWSWPTTFGGGTKVEIK
notes: constant region of the IgG heavy chain; constant region of the light chain; also called QGE031; source: produced and provided by Novartis Pharma AG
B3: Ligelizumab IgG (antibody, V domains shown)
VH: B2 VH
VL: B2 VL
notes: heavy chain constant region of the IgG; light chain constant region; also called QGE031; source: produced and provided by Novartis Pharma AG
B4: mutated C335 IgE-Fc3-4 (domain or fragment)
chain: AADSNPRCVSAYLSRPSPFDLFIRKSPTITCLVVDLAPSKGTVNLTWSRASGKPVNHSTRKEEKQRNGTLTVTSTLPVGTRDWIEGETYQCRVTHPHLPRALMRSTTKTSGPRAAPEVYAFATPEWPGSRDKRTLACLIQNFMPEDISVQWLHNEVQLPDARHSTTQPRKTKGSGFFVFSRLEVTRAEWEQKDEFICRAVHEAASPSQTVQRAVSVNPGK
modifications: Disulfide-linked homodimer via Cys335 (entity position 11), closed Cε3 conformation; N-glycosylated at Asn394. The change is not given; it is taken from 5HYS entity 3 (C328A/G335C). …
B5: mutated C335 IgE-Fc3-4 (domain or fragment)
chain: B4 chain
B6: wild-type IgE-Fc3-4 (co-expressed with the ligelizumab scFv for crystallisation) (domain or fragment, human)
chain: CADSNPRGVSAYLSRPSPFDLFIRKSPTITCLVVDLAPSKGTVNLTWSRASGKPVNHSTRKEEKQRNGTLTVTSTLPVGTRDWIEGETYQCRVTHPHLPRALMRSTTKTSGPRAAPEVYAFATPEWPGSRDKRTLACLIQNFMPEDISVQWLHNEVQLPDARHSTTQPRKTKGSGFFVFSRLEVTRAEWEQKDEFICRAVHEAASPSQTVQRAVSVNP
notes: human IgE heavy chain constant region, Cε3 and Cε4 domains, wild type (C328); also called C328 IgE-Fc3-4 fragment; wt C328 IgE-Fc3-4; source: HEK 293-6E, co-transfected with ligelizumab scFv, complex purified from supernatant (Ni-NTA, Superdex 200)
B7: ligelizumab single chain fragment variable (scFv) (scFv)
scFv: QVQLVQSGAEVMKPGSSVKVSCKASGYTFSWYWLEWVRQAPGHGLEWMGEIDPGTFTTNYNEKFKARVTFTADTSTSTAYMELSSLRSEDTAVYYCARFSHFSGSNYDYFDYWGQGTLVTVSSGTGGSGGGGSGGGGSGGGASEIVMTQSPATLSVSPGERATLSCRASQSIGTNIHWYQQKPGQAPRLLIYYASESISGIPARFSGSGSGTEFTLTISSLQSEDFAVYYCQQSWSWPTTFGGGTKVEIKENLYFQ
notes: ligelizumab VH domain; GTG(GSGGG)3AS linker; ligelizumab VL domain; also called ligelizumab scFv; ligelizumab single chain Fv; source: HEK 293-6E, co-transfected with IgE-Fc3-4, complex purified from supernatant (Ni-NTA, Superdex 200); not shown: His8, C-terminal, cleaved

Legend:
[1] = molecular target: T1, wild-type C328 IgE-Fc3-4 (human, UniProt P01854 209-426); experiment: SPR; 1000 RU FcεRIα immobilised, 20 nM IgE-Fc3-4 captured; 3.13–100 nM ligelizumab or omalizumab injected 120 s, dissociation 180 s; settings: both partners purified
T1 construct: human IgE heavy chain constant region, Cε3 and Cε4 domains, variant named C328; also called wt C328 IgE-Fc3-4

[2] = molecular target: T2, wild-type C328 IgE-Fc3-4 (Homo sapiens, UniProt P01854); experiment: SPR; 100 RU ligelizumab or omalizumab IgG immobilised by amine coupling on CM5 (ligelizumab pH 5.0, omalizumab pH 4.5); 0.3-5 nM C328 or C335 IgE-Fc3-4 injected 120 s, dissociation 180 s; HBS-EP+, 10 ul/min, Biacore X100; 1:1 langmuir fit; settings: both partners purified
T2 construct: human IgE heavy chain constant region, Fc fragment of the Cε3 and Cε4 domains, wild-type variant named C328; PDB 6UQR holds wt C328 IgE-Fc3-4 made in HEK 293-6E for the crystal; also called wt C328 IgE-Fc3-4

[3] = molecular target: T3, wild-type C328 IgE-Fc3-4 (human, UniProt P01854); experiment: SPR; Biacore X100, CM5 chip, HBS-EP+; 100 RU ligelizumab or omalizumab IgG immobilised; 0.3–5 nM C328 or C335 IgE-Fc3-4 injected 120 s, dissociation 180 s; settings: both partners purified
T3 construct: human IgE heavy chain constant region, Cε3 and Cε4 domains, variant named C328; also called wt C328 IgE-Fc3-4

[4] = molecular target: T4, Ligelizumab IgG; experiment: SPR; 100 RU ligelizumab or omalizumab IgG immobilised by amine coupling on CM5 (ligelizumab pH 5.0, omalizumab pH 4.5); 0.3-5 nM C328 or C335 IgE-Fc3-4 injected 120 s, dissociation 180 s; HBS-EP+, 10 ul/min, Biacore X100; 1:1 langmuir fit; settings: both partners purified
T4 construct: constant region of the IgG heavy chain; constant region of the light chain; also called QGE031; source: produced and provided by Novartis Pharma AG

[5] = molecular target: T5, Omalizumab IgG; experiment: as above; settings: both partners purified
T5 construct: also called Xolair; source: produced and provided by Novartis Pharma AG

[6] = molecular target: the molecule itself; experiment: crystal structure; scFv:IgE-Fc3-4 complex, hanging drop, 0.2 M Na thiocyanate pH 6.9, 20% PEG3350, 10 mM spermidine, 14 °C; 3.65 Å
[7] = molecular target: B6; experiment: as above; settings: both partners purified

B1
binding result [1]: binds

B2
Kd [2]: 11 pM | koff [2]: 0.00014 s⁻¹ | kon [2]: 1.3e+07 M⁻¹ s⁻¹

B3
fold higher affinity than C335 IgE-Fc3-4 [3]: ~60 fold

B4
Kd [4]: 640 pM | koff [4]: 0.0065 s⁻¹ | kon [4]: 1.1e+07 M⁻¹ s⁻¹

B5
Kd [5]: 608 pM | koff [5]: 0.0049 s⁻¹ | kon [5]: 7.7e+06 M⁻¹ s⁻¹

B6
stoichiometry N [6]: 2

B7
binding result [7]: binds
